# According to patent US20180112193A1, “CSF1 THERAPEUTICS” (University Court Of The University Of Edinburgh, priority 2013, published 2018):
# How the values were obtained:
# male C57BI6 mice = experiment: Murine models of acute and acute-on-chronic liver injury (all three injury models); type: in vivo
# Description: Forty-eight male C57BI6 mice aged 10-12 weeks underwent either 2/3 partial hepatectomy, paracetamol intoxication or chronic liver injury plus 2/3 partial hepatectomy. 2/3 partial hepatectomy was performed by ligating the left lobe and left and right median lobes. Paracetamol intoxication was performed by intraperitoneal administration of 350 mg/kg paracetamol dissolved in phosphate buffered saline (PBS). Chronic liver injury plus 2/3 partial hepatectomy was performed by eight weeks intraperitoneal carbon tetrachloride administration 1 mcl/g twice weekly dissolved in olive oil followed by ⅔ partial hepatectomy as described above. […] Control mice (n=8 per injury model) received subcutaneous PBS of appropriate volume. All mice were culled on day 4 following injury (partial hepatectomy or paracetamol intoxication).
# Following a midline laparotomy the liver was excised and weighed. Liver weight to body weight ratio was calculated and expressed as a percentage. Livers were fixed in 4% formalin overnight then transferred to 70% ethanol. Livers were then embedded in paraffin blocks and 4 μm sections cut. Immunohistochemistry for Ki67 (a marker of cellular proliferation expressed throughout the cell cycle) was performed following heat mediated antigen retrieval in Tris/EDTA solution at pH9. Hepatocyte proliferation was quantified by counting ki67 positive hepatocytes in 20 high powered fields (400×) per animal and the mean calculated.
# The effects of Fc-CSF1 on liver regeneration in murine models of acute liver injury (partial hepatectomy; paracetamol intoxication) and acute-on-chronic liver injury (chronic liver injury plus partial hepatectomy) were studieD. The treatment group (n=8 per injury model) received 0.5 mcg/g Fc-CSF1 administered subcutaneously immediately following either partial hepatectomy or paracetamol intoxication and subsequently every 24 hours for three further doses. Control mice (n=8 per injury model) received subcutaneous PBS of appropriate volume. […]
# mouse bone marrow cells = experiment: Proliferation of mouse bone marrow cells; type: cell-based; conditions: data not shown
# Description: (§1) Stable Ba/F3 cells expressing porcine CSF-1R were maintained in culture with complete RPMI supplemented with either 10^4 Units/ml rh-CSF-1 or 10% IL-3 conditioned medium prior to MTT assay. 2×10^4 cells/well (Ba/F3 cells and Ba/F3 transfectants), or 5×10^4 cells/well (pig BMM) of a 96 well plate were plated in triplicate or quadruplicate and appropriate treatment (serial dilutions of rh-CSF-1 or porcine Fc CSF-1 were added to make a total volume of 100 μl per well. Cells were incubated for 48 hours at 37° C. with 5% CO2. For Ba/F3 cells, 10 μl of MTT (Sigma Aldrich M5655) stock solution (5 mg/ml) was added directly to each well to achieve a final concentration of 0.5 mg/ml and incubated at 37° C. for 3 hours prior to solubilisation overnight. For adherent mouse BMM cells, culture medium was replaced with 50 μl of 1 mg/ml MTT solution and incubated for 1 hour at 37° C. MTT solution was removed and tetrazolium salt solubilised with 100 μl of solubilisation agent (0.1M HCL, 10% Triton x-100 and isopropanol) followed by incubation at 37° C. with 5% CO2 for 10 minutes. Plates were read at 570 nm with reference wavelength of 405 nm.
# (§2) Mice were injected with Fc-CSF-1 subcutaneously on each of 4 days and sacrificed on the 5th day. The mice were csf1r-EGFP (MacGreen) mice on the C57BI/6 background. […]
# [1] = system: Ba/F3 CS1R reporter cell line; experiment: Proliferation of Ba/F3 CS1R reporter cell line (MTT cell viability assay); type: cell-based, porcine; conditions: data not shown
# Description: as §1, §2
# [2] = system: csf1r-EGFP (MacGreen) mice; experiment: Fc-CSF-1 injected subcutaneously into csf1r-EGFP mice on 4 days, sacrificed on the 5th day; type: in vivo, mouse
# Description: Mice were injected with Fc-CSF-1 subcutaneously on each of 4 days and sacrificed on the 5th day. The mice were csf1r-EGFP (MacGreen) mice on the C57BI/6 background. Tissue processing and immunohistochemistry were carried out as described in (Alikhan et al Am J. Pathol. 179, 1243-1256, 2011 and Macdonald et al Blood. 116, 3955-3963, 2010). A comparison of the effect of recombinant pig CSF-1 or Fc-CSF-1 on the proliferation of mouse bone marrow cells or the Ba/F3 CS1R reporter cell line using the assay described in Gow et al Cytokine.
# weaner pigs = experiment: Preliminary experiment on weaners, circulating monocytes; type: in vivo, pig; conditions: three treatments with 0.4 mg/kg every alternative day
# Description: Note that the peak plasma level obtained is only around 100 ng/ml, and it is completely cleared by 20 hours. By contrast, Fc-CSF-1 (FIGS. 9B and C) attains 100-fold higher plasma concentrations and remains elevated for up to 72 hours. A preliminary experiment on weaners determined that three treatments with 0.4 mg/kg with Fc-CSF-1 every alternative day produced a 2-3 fold increase in circulating monocyte numbers.
# neonatal pigs = experiment: Fc-CSF-1 efficacy/safety treatment trial in neonatal pigs; type: in vivo, pig
# Description: Further tests were conducted to assess Fc-CSF-1 efficacy/safety treatment trial in neonatal pigs. At the two doses tested (0.12 mg/Kg×3 and 0.5 mg/Kg×6) the Fc-CSF-1 treatment had little effect on body weight gain at any time point. […] It was noted that in the control animals, that the total blood cell count, monocyte count and granulocyte count declines in the first two weeks of life in the pig.
# [3] = all injury models, vs PBS control
# [4] = 1 mg/kg, whole group or segregated for male or female
# [5] = 0.12 mg/Kg×3, end of the experiment
molecule,measurement,setting,value
"Fc-CSF-1: active fragment of porcine CSF-1 (SEQ ID NO:1) linked to the hinge-CH3 region of porcine IgG1a (SEQ ID NO:2) (protein, listed as Sus scrofa) SENCSHMIGDGHLKVLQQLIDSQMETSCQIAFEFVDQEQLTDPVCYLKKAFLQVQDILDETMRFRDNTPNANVIVQLQELSLRLNSCFTKDYEEQDKACVRTFYETPLQLLEKIKNVFNETKNLLKKDWNIFSKNCNNSFAKCSSQHERQPEGRGTKTKPPCPICPGCEVAGPSVFIFPPKPKDTLMISQTPEVTCVVVDVSKEHAEVQFSWYVDGVEVHTAETRPKEEQFNSTYRVVSVLPIQHQDWLKGKEFKCKVNNVDLPAPITRTISKAIGQSREPQVYTLPPPAEELSRSKVTVTCLVIGFYPPDIHVEWKSNGQPEPEGNYRTTPPQQDVDGTFFLYSKLAVDKARWDHGETFECAVMHEALHNHYTQKSISKTQGK",hepatic weights,male C57BI6 mice; [3],growth promoting effect
same,hepatocyte proliferation,male C57BI6 mice; [3],growth promoting effect
same,tolerability of interventions and treatments,"male C57BI6 mice; subcutaneously immediately after injury, then every 24 hours for three further doses",well tolerated
same,biological activity (proliferation) compared with recombinant pig CSF-1,mouse bone marrow cells,no difference in biological activity
same,biological activity (proliferation) compared with recombinant pig CSF-1,[1],no difference in biological activity
same,"body weight, dose response curve",[2]; 0.1 mg/kg,detectable activity
same,total body weight,[2]; 1 mg/kg,clearly increased total body weight
same,total liver weight,[2]; 1 mg/kg,significantly increased
same,weight of the spleen,[2]; 1 mg/kg,almost doubled
same,weight of the kidney,[2]; [4],no effect
same,weight of the lung,[2]; [4],no effect
same,segmented neutrophil counts,[2]; blood,increases
same,total lymphocytes,[2]; blood,no effect
same,total blood monocyte count,"[2]; blood, both sexes",elevates
same,white blood cell count,"[2]; blood, both sexes",elevates
same,bone resorbing osteoclasts in bone,"[2]; growth plate, zone of resorption and shaft, data not shown",increase
same,"increase in abundance of macrophage-specific genes (csf1r, emr1 (F4/80))","[2]; liver, Affymetrix microarrays",4-8 fold
same,"induction of classical inflammatory genes such as TNF-a, IL-6 or IL-1","[2]; liver, Affymetrix microarrays",no evidence of induction
same,"cell proliferation in liver, PCNA immunostaining","[2]; liver, proliferating cells identified as hepatocytes",extensive cell proliferation
same,"macrophage numbers in liver, F4/80 immunostaining","[2]; liver, vs PBS control",large increase in macrophage numbers
same,"numbers of macrophages in the spleen, csf1r-EGFP reporter fluorescence","[2]; spleen, treated vs control",greatly increased fluorescence
same,"macrophage numbers and F4/80 intensity in spleen, immunostaining","[2]; spleen, vs PBS control",large increase in macrophage numbers and also intensity of F4/80
same,increase in circulating monocyte numbers,weaner pigs,2-3 fold
same,kidney weight,neonatal pigs; [5],did not alter
same,liver weight,neonatal pigs; [5],did not alter
same,lung weight,neonatal pigs; [5],did not alter
same,spleen weight,neonatal pigs; [5],did not alter
same,body weight gain,"neonatal pigs; 0.12 mg/Kg×3 and 0.5 mg/Kg×6, any time point",little effect
same,granulocyte count,"neonatal pigs; blood, vs control animals",increased
same,lymphocyte count,"neonatal pigs; blood, vs control animals",increased
same,monocyte count,"neonatal pigs; blood, vs control animals",increased
same,weight gain,"neonatal pigs; higher dose (0.5 mg/Kg×6), data not shown",marginal decrease
same,histiocytes in the liver (pathology report),neonatal pigs; liver,increased numbers
